Patent US20220026415A1, “A METHOD FOR SCREENING A THERAPEUTIC AGENT FOR CANCER USING BINDING INHIBITOR OF CYCLIN-DEPENDENT KINASE 1 (CDK1)-CYCLIN B1 AND RETINOIC ACID RECEPTOR RESPONDER 1 (RARRES1) GENE KNOCKOUT ANIMAL MODEL” (NATIONAL CANCER CENTER, priority 2018, published 2022)

Test system: HEK293 cells
Assay: Cell cycle distribution after release from double thymidine block, flow cytometry
Format: cell-based
Experimental: In the case of a double thymidine block (DTB) synchronized at the G1/S boundary, HEK293 cells were incubated with 2 mM thymidine for 16 hours and maintained in a normal medium for 10 hours, and then 2 mM thymidine was further added thereto for 16 hours.
For analysis of cell cycles or sub-G1 DNA contents, cells were immobilized with 80% ice-cold ethanol, and stored at 4° C. The cells were stained with PBS containing 50 ug/ml of propidium iodide (PI) and 100 ug/ml of RNase A at 37° C. for 30 minutes. DNA content was analyzed by FACS Calibur flow cytometry and the results thereof were analyzed using Cellquest software (Becton-Dickinson Immunocytometry Systems, San Diego, Calif.) and Modfit LT 3.3 software. At least 10,000 cells were analyzed per sample.
To evaluate whether the reduced cell growth observed in RARRES1-overexpressing cells was due to altered cell cycle progression, HEK293 cells were transfected with green fluorescent protein (GFP) tagged-RARRES1 or -empty vector (Ctrl) according to the method of Example 1-1, and the cells were observed by live cell imaging according to Example 1-6. From now on, all data shown was regarded as isoform 1 since there was no difference between the two isoforms of RARRES1 in the above experiments, and it was named ‘RARRES1.’ In HEK293 cells transfected with a GFP control (Ctrl) according to the method of Example 1-1, the cells underwent normal cell cycle progression. A cell entered into mitosis (round shape) within 1 hour, and was separated into two daughter cells within at least 2.5 hours (see FIG. 5A, top panel). […] To confirm mitotic arrest induced by RARRES1 overexpression, GFP-control or GFP-RARRES1-overexpressing 293 cells and 293 cells transfected with a red fluorescent protein (RFP) lentivirus used to label GFP non-transfected cell, according to Example 1-3 were co-cultured, and changes in the number of fluorescence-expressing cells (see FIG. 5B) were monitored. […] Under co-culture conditions of GFP-control coupled with RFP virus-transfected cells, the numbers of both fluorescence-expressing cells were increased over time. […]

B1: RARRES1: RARRES1 isoform 1 overexpressed in HEK293 cells by transfection with an expression vector (protein)
chain: MQPRRQRLPAPWSGPRGPRPTAPLLALLLLLAPVAAPAGSGDPDDPGQPQDAGVPRRLLQQAARAALHFFNFRSGSPSALRVLAEVQEGRAWINPKEGCKVHVVFSTERYNPESLLQEGEGRLGKCSARVFFKNQKPRPTINVTCTRLIEKKKRQQEDYLLYKQMKQLKNPLEIVSIPDNHGHIDPSLRLIWDLAFLGSSYVMWEMTTQVSHYYLAQLTSVRQWKTNDDTIDFDYTVLLHELSTQEIIPCRIHLVWYPGKPLKVKYHCQELQTPEEASGTEEGSAVVPTELSNF
cells in the G2/M phases (4 hours after release from DTB, control 21.38%): 29.85%
cells in the G2/M phases (6 hours after release from DTB, control 77.41%): 80.91%
cells in the G2/M phases (8 hours after release from DTB, control 45.47%): 54.46%
